{"source": "patent EP0562624A2", "about": "“Stabilization of functional proteins” (Modrovich, Ivan E., priority 1992, dated 1993)", "assay": "Stability of HRP in uric acid single reagent solution", "format": "physicochemical", "details": "Uric Acid SR Model", "protocol": "As in Example 2 Horseradish Peroxidase (HRP) was dissolved in an aqueous base containing 50 mg/ml BSA and 10 mg/ml Tris with no pH adjustment. HRP concentration was 30 mg/ml.\nEDAC and PSL solutions were formed as in Example 2 as in relative concentrations of 100 mg/ml and 20 mg/ml. The PSL solution was added in an amount of 0.14 ml per 0.5ml of HRP solution dropwise over an ice bath. This was followed by the addition of the EDAC solution in an amount of 0.05 ml per 0.5 ml of HRP solution. The mixture was stored at 4°C for 4 days and evaluated for the stability of HRP in a uric acid single reagent solution.\nThis is reported in Table 4 where the Control 4 is the unmodified horseradish peroxidase."}
{"substance": "Example 4: Horseradish Peroxidase (HRP) stabilized with PSL and EDAC", "values": [{"measurement": "%HRP of 4°C", "setting": "1 day at 4°C", "result": 100, "unit": "%"}, {"measurement": "%HRP of 4°C", "setting": "1 day at 41°C", "result": 70, "unit": "%"}, {"measurement": "%HRP of 4°C", "setting": "3 days at 4°C", "result": 100, "unit": "%"}, {"measurement": "%HRP of 4°C", "setting": "3 days at 41°C", "result": 35, "unit": "%"}]}
